Reference: PMC3985513 (Biochemistry, 2014)
Read-outs that look alike come from different tables or passages of the source.

B1: SwH-NOX (heme-nitric oxide/oxygen binding protein from Shewanella woodyi), wild type (natural protein, UniProt B1KIH6 1-182, looked up)
chain: MMGMVFTGLMELIEDEFGYETLDTLLESCELQSEGIYTSVGSYDHQELLQLVVKLSEVSSVPVTELVRLFGKKLFVELIEGHPEIANEMKDSFDLLSKIDSFIHVEVYKLYPQAELPKFTCDRLGDNDIRLHYQSKRPFASFAEGLLDGCAEYFKEDFTISRTPETQDSETDVIFNITRAPR
B2: SwHaCE (H-NOX-associated cyclic-di-GMP processing enzyme from Shewanella woodyi, diguanylate cyclase/phosphodiesterase) (enzyme, UniProt B1KIH5 1-637, looked up)
chain: MSALEDREQVFLRRIDREKRARQQAEQILNEKSKELWNTNQKLQQINEQLDQMVKTRTSELEIAKTNAELESLAHKNAKERFQLAMRATSAGVWERNIDEDAWYFSDRLIALFGYSREELLFGFKNLSFIHNEDKKPLLHVLKNHFRNGKAFDFECRVLTSEGRYKWFWIVGQAVWNDKGEVVRIAGSFSDIDERVENSKLVEKMAHYDHLTMVPNRVLYNQKLDIALSLADKEQSHLAVILIDLNDFKQVNDTLGHSAGDHLLQHIANQFKLNISESDIVARLGGDEFSIVLTNIANRQAVVTKCEQVLEIISRPFYYQKNLIIPKISMGIALYPEYGMTRDELMVNADLAMYKAKGEKHMGSGFQFCEQEHINKNMERTELSSELCEAITENEFFMHFQPIIDLSNGEVTFAEALIRWKHTNKGVLLPEKFISIAEDSGLITRLGKLSIELVAKQIDRMMAAKRLQKLTINISPSHFLSQSFMEDLKEILSVYPKMSSFITIEITEVVFLLNMEVAKKTVIELHDMGITISLDDFGTGYSSFKYLQQLPIDVIKLDCSFIAELDIDPSHRNIASTIIELAHSLEIKVIAEGVETNSQLVFLQDHHCDFAQGSYFFKPLSVIDFLHMQRCISLPAK

How the values were obtained:
[1] = target: B2; test: AUC
[2] = target: B2; test: AUC; remark: listed apart in the source
[3] = target: B2; test: other fluorescence titration
AUC = target: the molecule itself; test: AUC

Row | Binder | stoichiometry N [1] | stoichiometry N [2] | Kd [3] | stoichiometry N (AUC)
1 | B1 | 1 H-NOX per HaCE (2+2) | 1 H-NOX per HaCE (2+2) | 2500 to 3000 nM | 
2 | B2 |  |  |  | 2
